For one molecule, Bmax results are on record in patent US20160051704A1, “MOLECULAR IMAGING PROBES FOR LUNG CANCER INTRAOPERATIVE GUIDANCE” (H. Lee Moffitt Cancer Center and Research Institute, Inc., priority 2013, published 2016).

This experiment has as its target T1, delta opioid receptor (δOR) on HCT-116/δOR cells, P41143.
T1 chain: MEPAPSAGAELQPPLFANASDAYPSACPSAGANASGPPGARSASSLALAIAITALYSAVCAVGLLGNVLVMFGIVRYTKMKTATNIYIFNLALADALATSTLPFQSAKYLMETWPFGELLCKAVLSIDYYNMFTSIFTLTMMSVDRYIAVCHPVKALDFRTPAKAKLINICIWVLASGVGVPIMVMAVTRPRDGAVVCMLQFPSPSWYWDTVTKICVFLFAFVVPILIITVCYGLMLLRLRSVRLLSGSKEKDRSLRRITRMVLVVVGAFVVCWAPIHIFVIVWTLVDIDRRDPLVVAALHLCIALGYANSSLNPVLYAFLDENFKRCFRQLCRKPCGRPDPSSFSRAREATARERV
As to the kind of experiment: in cyto time-resolved fluorescence saturation binding on HCT-116/δOR cells.

The molecule YCGFC (modifications not checked) [Europium (Eu)-diethylenetriaminepentaacetic acid (DTPA)[D-Pen2, L-Cys5] enkephalin (DPLCE)] came in with a Bmax of 3.01e+06 AFU.
